# Measured values as given in the RNAGym collection of RNA variant scans (doi:10.1073/pnas.2313332121).
# B1: TPR t1 (parent)
# chain: GACCAAUCUGCCCUCAGAGCUCGAGAACAUCUUCGGAUGCAGAGGAGGCAGGCUUCGGUGGCGCGAUAGCGCCAACGUCCUCAACCUCCAAUGCAUCCCACCACAUGAUGAUGCCUGAAGAGCCUUGGUUUUUUG
# Variants of: B1
# Experiment: polymerase ribozyme fitness, log enrichment relative to wild type (log ratio); higher = more active; in vitro selection for triplet polymerase activity
# Outline: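 Frozen incubation at −7 °C formed the core of a single, triplicate in vitro selection round applied to PCR-built, transcribed mutant libraries of each subunit of a heterodimeric triplet polymerase ribozyme. Extended constructs were gel-excised, captured with streptavidin beads and amplified by RT-PCR, and input and output libraries were Illumina-sequenced with a filter of ≥10 input reads and ≥1 read per output. Fitness is the logarithm of genotype enrichment relative to wild-type enrichment, with inverse-variance-weighted replicate averaging, and the logarithm is base 2.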
row,Variant,polymerase ribozyme fitness (log ratio)
1,G63A G93C G113U G135A,-4.37
2,C62U C88A,-0.404
3,G63A C72U C101U,-1.24
4,C62G C86U,-1.34
5,C62G G69U,-5.17
6,G63U C72A,-4.54
7,G63U C72G,-3.89
8,G63U A100C,-2.79
9,C62G U130A,-1.59
10,G63A C115A,-1.19
11,G63C G117U,-2.64
12,G63A G71C,-3.85
13,C62U C82U C124A,1.29
14,G63A G117C,-3.7
15,G63A G117A,-2.26
16,C62U C76U G120C,0.583
17,C62U G63U U109G,-7.47
18,C62U C80G C124G,-5.66
19,C62G U78C U96C,-3.37
20,G63A G110A,-2.72
21,G63A G110U,-3.42
22,G63A G110C,-5.57
23,G63C G107U,-5.92
24,C62U U87A U92A G120C,-3.58

row,Variant,polymerase ribozyme fitness (log ratio)
1,G63A C79G U109G,-7.2
2,C62U A119G,0.565
3,G63C A111C,-0.587
4,G63A A95U,-0.563
5,G63A A95C,-2.22
6,C62A U106A,-1.37
7,G63C C80U A118C G120A,-3.34
8,C62G G110A,-3.33
9,C62G G110U,-2.94
10,C62G G113U,-4.24
11,G63A U92A,-4.6
12,C62U C76G U78A,-0.661
13,G63C A91U,-2.7
14,C62U U106A,0.471
15,C62U A74U G128C,-3
16,C62U U109A,-4.57
17,C62U U109C,-4
18,G63A U87G A95U,-1.19
19,G63C C86U G120A,-0.703
20,C62A U133G,-2.87
21,G63A U133G,-1.23
22,G63C G93C C97U C101U,-1.93
23,G63C U116G,-2.02
24,G63A A91C,-4.17

row,Variant,polymerase ribozyme fitness (log ratio)
1,G63A A91G,-2.33
2,G63C A111G U125C,-1.75
3,G63C U87A A100U G127C,-2.77
4,G63A C104U G120A G127A,-0.508
5,G63A G93U,-2.58
6,C62U U78G,-0.0458
7,G63C A75G C85A A95U A100C C115G U126C,-5.24
8,C62U U78C U96G U129C,-0.314
9,C62U G107U,-4.02
10,C62U G107A,-4.72
11,G63U C73A,-2.51
12,G63C C76A A91C A100C C115G C123A,-4.91
13,G63C U81C A90U,-3.06
14,G63A G127C,-1.62
15,C62U U131C,0.107
16,G63C A105G G120C,-2.96
17,C62A U78C U112A U116A,-3.11
18,C62U U87C C88G C114A,-3.36
19,C62A U129G,-1.28
20,G63C U87G,-0.832
21,G63C U87C,-0.645
22,G63C U87A,-1.59
23,G63A C79U A95U C101U,-0.75
24,C62U C115G,-2.51

row,Variant,polymerase ribozyme fitness (log ratio)
1,C62U C115A,0.00277
2,C62U A95U A105U,-3.17
3,G63A A111G,-0.659
4,G63C U92A C98U,-5.26
5,G63A U130G,-0.913
6,G63A U130C,-0.399
7,C62A U96A U112C,-0.2
8,C62U C86U G117C U132A,-4.51
9,C62G G120C,-0.544
10,C62G G120A,-0.673
11,G63U A84G,-2.18
12,C62G G113A C114G A121U,-4.27
13,C62A U106G A121G,-0.77
14,C62U C104U,0.0133
15,C62U C99U C101U,-3.02
16,C62A G128C,-3.8
17,G63U C79A G110U,-5.14
18,G63C C80G,-6.96
19,G63C C80A,-3.71
20,C62U G120C,0.344
21,G63C A91G G113A,-2.9
22,C62U G71C G120U A121C,0.341
23,G63C U125C,-3.57
24,G63U C70G C89A A90U A100U A121G,-2.02

row,Variant,polymerase ribozyme fitness (log ratio)
1,C62U C124A,1.84
2,G63A G77U C79U A100C,-2.62
3,G63A C104A,-2.41
4,C62G C115U,-2.93
5,G63U A91C,-3.19
6,G63A C88U A118C,-3.02
7,C62G C73U A74U U109G C124A,-6.92
8,G63A A119G,-0.0262
9,C62U A90C,-2.52
10,C62U A121C,1.11
11,C62U A121U,1.08
12,C62U C85U U87A U92C C114U G117A,-6.6
13,G63C G113C,-3.38
14,C62A U81G G120A,-4.65
15,C62A U87A U92A U116C,-6.88
16,C62U C73U U112G,0.712
17,C62G G128A,-2.8
18,C62A G113A,-2.02
19,G63A C80U,-1.54
20,C62U C85G U87C,-2.53
21,G63A C99A A121C,-5.41
22,C62U G69A C97G G110C,-6.75
23,G63A A83C C102U G113U,-7.43
24,G63C G71U U96A A100U G117U U134G,-5.35

row,Variant,polymerase ribozyme fitness (log ratio)
1,C62U U87A,0.539
2,G63A U78C G93A G122A,-2.28
3,C62U U87G U109A,-5.76
4,C62U C97U,-0.489
5,C62U C97G,-4.18
6,G63A C82U C85U A90U C98U A118U,-5.21
7,C62A U131C,-0.63
8,C62A G117C A118C U131C,-5.12
9,C62A G117U,-3.38
10,C62A G117A,-2.71
11,G63A C64A U81G C115G,-6.59
12,C62G U78C C79G A111G,-3.51
13,C62U C80A A84C,-3.26
14,G63A U129A,-1.64
15,C62U C64U C102A U126G,-4.31
16,G63A C82U,-1.51
17,C62U U78C C85A U92C C97A,-6.24
18,C62U G135A,-1.28
19,C62A U78C,-1.1
20,C62U G77U,-0.487
21,C62G C85A C102U A121U C124U,-4.13
22,C62G C86A C99U C101U A121G G122U,-5.18
23,G63A G128A,-2.19
24,G63A G128C,-3.34

row,Variant,polymerase ribozyme fitness (log ratio)
1,C62U C123A,0.98
2,G63A C123A,-0.259
3,C62U C86G G117A A119U,-0.588
4,G63A U112A,-0.0284
5,G63C A111U G122A,-5.6
6,G63C A111C A121C,-0.162
7,C62U A90C G135U,-2.45
8,G63U A68C A121G,-5.43
9,G63U A83G C85A U129A,-2.64
10,C62G A100U G120U,-3.32
11,G63A C82U U126G,-2.36
12,C62G U96A C123U,-3.13
13,G63U A95U C124U G135A,-0.147
14,G63C U78C,-1.55
15,C62U U81G,-3.67
16,C62U A74U U78C G120A,-0.246
17,G63A A68G,-3.95
18,C62G C89A,-4.23
19,G63C U109G,-3.42
20,G63C U109C,-4.03
21,G63C C64U A118G U133G,-4.77
22,C62G G117A U131G,-4.48
23,C62A G122U,0.143
